# T1: Abp1, P15891
# T1 sequence (P15891 535-592, looked up): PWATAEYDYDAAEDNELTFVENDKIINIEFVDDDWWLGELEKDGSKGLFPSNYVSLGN
# T2: Bbc1, P47068
# T2 sequence (P47068 1-78, looked up): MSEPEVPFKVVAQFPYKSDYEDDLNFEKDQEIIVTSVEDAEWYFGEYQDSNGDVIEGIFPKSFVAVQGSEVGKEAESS
# T3: Boi1, P38041
# T3 sequence (P38041 1-86, looked up): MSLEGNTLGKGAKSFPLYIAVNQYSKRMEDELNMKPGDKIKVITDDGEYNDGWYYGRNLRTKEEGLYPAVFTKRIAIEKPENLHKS
# T4: Boi2, P39969
# T4 sequence (P39969 32-116, looked up): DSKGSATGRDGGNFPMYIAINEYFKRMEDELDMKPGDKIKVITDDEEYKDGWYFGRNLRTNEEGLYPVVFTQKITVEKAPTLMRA
# T5: Bud14, P27637
# T5 sequence (P27637 247-328, looked up): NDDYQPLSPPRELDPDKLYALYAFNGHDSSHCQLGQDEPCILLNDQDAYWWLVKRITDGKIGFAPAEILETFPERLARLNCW
# T6: Bzz1-1, P38822
# T6 sequence (P38822 478-572, looked up): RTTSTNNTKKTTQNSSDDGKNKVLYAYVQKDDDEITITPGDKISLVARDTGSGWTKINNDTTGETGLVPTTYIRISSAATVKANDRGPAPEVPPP
# T7: Bzz1-2, P38822
# T7 sequence (P38822 568-633, looked up): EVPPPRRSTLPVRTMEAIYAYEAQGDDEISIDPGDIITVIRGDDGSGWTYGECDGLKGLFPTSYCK
# T8: Cdc25, P04821
# T8 sequence (P04821 50-136, looked up): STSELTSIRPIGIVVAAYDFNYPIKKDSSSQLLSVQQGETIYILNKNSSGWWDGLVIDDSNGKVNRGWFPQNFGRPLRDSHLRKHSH
# T9: Cyk3, Q07533
# T9 sequence (Q07533 1-83, looked up): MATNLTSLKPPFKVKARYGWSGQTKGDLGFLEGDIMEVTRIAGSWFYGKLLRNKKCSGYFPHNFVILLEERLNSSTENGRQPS
# T10: Fus1, P11710
# T10 sequence (P11710 432-512, looked up): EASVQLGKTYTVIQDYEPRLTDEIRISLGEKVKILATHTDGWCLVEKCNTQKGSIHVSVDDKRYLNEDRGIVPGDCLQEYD
# T11: Hof1, Q05080
# T11 sequence (Q05080 590-669, looked up): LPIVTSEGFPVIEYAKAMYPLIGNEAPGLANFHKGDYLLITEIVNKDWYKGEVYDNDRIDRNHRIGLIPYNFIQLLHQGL
# T12: Hse1, P38753
# T12 sequence (P38753 208-285, looked up): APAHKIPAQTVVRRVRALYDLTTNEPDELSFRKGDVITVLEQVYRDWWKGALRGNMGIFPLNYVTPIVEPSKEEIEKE
# T13: Lsb1, P53281
# T13 sequence (P53281 45-122, looked up): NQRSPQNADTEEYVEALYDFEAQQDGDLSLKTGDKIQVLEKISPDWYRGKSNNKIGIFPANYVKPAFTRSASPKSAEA
# T14: Lsb3, P43603
# T14 sequence (P43603 385-451, looked up): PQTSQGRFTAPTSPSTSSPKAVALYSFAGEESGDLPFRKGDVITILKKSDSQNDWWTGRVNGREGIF
# T15: Lsb4, P32793
# T15 sequence (P32793 402-468, looked up): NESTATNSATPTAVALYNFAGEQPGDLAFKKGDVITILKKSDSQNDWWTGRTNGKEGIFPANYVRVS
# T16: Myo5, Q04439
# T16 sequence (Q04439 1072-1160, looked up): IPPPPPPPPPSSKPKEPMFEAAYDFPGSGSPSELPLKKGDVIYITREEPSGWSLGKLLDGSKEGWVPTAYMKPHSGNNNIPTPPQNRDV
# T17: Nbp2, Q12163
# T17 sequence (Q12163 103-180, looked up): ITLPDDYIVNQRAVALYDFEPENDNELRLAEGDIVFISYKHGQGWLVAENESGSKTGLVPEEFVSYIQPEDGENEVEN
# T18: Pex13, P80667
# T18 sequence (P80667 295-386, looked up): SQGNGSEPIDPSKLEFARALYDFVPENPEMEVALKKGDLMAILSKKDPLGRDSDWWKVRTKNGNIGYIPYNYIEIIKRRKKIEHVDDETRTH
# T19: Pin3, Q06449
# T19 sequence (Q06449 53-122, looked up): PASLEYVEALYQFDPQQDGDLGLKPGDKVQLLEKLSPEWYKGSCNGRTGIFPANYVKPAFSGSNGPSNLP
# T20: Sla1-2, P32790
# T20 sequence (P32790 60-140, looked up): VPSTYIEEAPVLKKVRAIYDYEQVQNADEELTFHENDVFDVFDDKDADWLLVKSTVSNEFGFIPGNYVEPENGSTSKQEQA
# T21: Sla1-3, P32790
# T21 sequence (P32790 344-424, looked up): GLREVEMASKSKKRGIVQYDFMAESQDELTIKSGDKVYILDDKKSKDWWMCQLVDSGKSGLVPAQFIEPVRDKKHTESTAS
# B1: unnamed (peptide)
# chain: NILKRRPLKLEAPSK
# B2: unnamed (peptide)
# chain: FSRRQSMDIPSKNRN
# B3: unnamed (peptide)
# chain: NMLSRPRLAKLPSIR
# Molecular target: T1, Abp1, P15891
# Experiment: SPOT array
# Conditions: median of control spots 935
row,Binder,SPOT intensity
1,B1,92
2,B2,127
3,B3,42

# Molecular target: T2, Bbc1, P47068
# Experiment: SPOT array
# Conditions: median of control spots 796
row,Binder,SPOT intensity
1,B1,272
2,B2,7
3,B3,54

# Molecular target: Bem1-1, P29366
# Sequence (P29366 55-141): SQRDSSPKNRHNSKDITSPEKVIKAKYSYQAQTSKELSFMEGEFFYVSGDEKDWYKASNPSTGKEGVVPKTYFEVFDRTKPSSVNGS
# Experiment: SPOT array
# Conditions: median of control spots 4282
row,Binder,SPOT intensity
1,B1,0
2,B2,7
3,B3,0

# Molecular target: Bem1-2, P29366
# Sequence (P29366 139-227): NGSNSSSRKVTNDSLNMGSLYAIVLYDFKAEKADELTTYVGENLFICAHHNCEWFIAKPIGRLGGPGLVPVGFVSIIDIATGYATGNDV
# Experiment: SPOT array
# Conditions: median of control spots 4347
row,Binder,SPOT intensity
1,B1,0
2,B2,0
3,B3,18

# Molecular target: T3, Boi1, P38041
# Experiment: SPOT array
# Conditions: median of control spots 1162
row,Binder,SPOT intensity
1,B1,7
2,B2,0
3,B3,5

# Molecular target: T4, Boi2, P39969
# Experiment: SPOT array
# Conditions: median of control spots 1161
row,Binder,SPOT intensity
1,B1,3
2,B2,1
3,B3,2

# Molecular target: T5, Bud14, P27637
# Experiment: SPOT array
# Conditions: median of control spots 956
row,Binder,SPOT intensity
1,B1,19
2,B2,6
3,B3,33

# Molecular target: T6, Bzz1-1, P38822
# Experiment: SPOT array
# Conditions: median of control spots 4446
row,Binder,SPOT intensity
1,B1,2
2,B2,1
3,B3,0

# Molecular target: T7, Bzz1-2, P38822
# Experiment: SPOT array
# Conditions: median of control spots 4538
row,Binder,SPOT intensity
1,B1,18
2,B2,26
3,B3,11

# Molecular target: T8, Cdc25, P04821
# Experiment: SPOT array
# Conditions: median of control spots 969
row,Binder,SPOT intensity
1,B1,297
2,B2,16
3,B3,108

# Molecular target: T9, Cyk3, Q07533
# Experiment: SPOT array
# Conditions: median of control spots 1451
row,Binder,SPOT intensity
1,B1,4
2,B2,0
3,B3,1

# Molecular target: T10, Fus1, P11710
# Experiment: SPOT array
# Conditions: median of control spots 1200
row,Binder,SPOT intensity
1,B1,37
2,B2,0
3,B3,12

# Molecular target: GST
# Experiment: SPOT array
# Conditions: median of control spots 978
row,Binder,SPOT intensity
1,B1,0
2,B2,1
3,B3,0

# Molecular target: T11, Hof1, Q05080
# Experiment: SPOT array
# Conditions: median of control spots 4086
row,Binder,SPOT intensity
1,B1,14
2,B2,0
3,B3,178

# Molecular target: T12, Hse1, P38753
# Experiment: SPOT array
# Conditions: median of control spots 1727
row,Binder,SPOT intensity
1,B1,302
2,B2,8
3,B3,216

# Molecular target: T13, Lsb1, P53281
# Experiment: SPOT array
# Conditions: median of control spots 388
row,Binder,SPOT intensity
1,B1,2
2,B2,200
3,B3,59

# Molecular target: T14, Lsb3, P43603
# Experiment: SPOT array
# Conditions: median of control spots 406
row,Binder,SPOT intensity
1,B1,0
2,B2,22
3,B3,2

# Molecular target: T15, Lsb4, P32793
# Experiment: SPOT array
# Conditions: median of control spots 397
row,Binder,SPOT intensity
1,B1,1
2,B2,84
3,B3,10

# Molecular target: Myo3, P36006
# Experiment: SPOT array
# Conditions: median of control spots 468
row,Binder,SPOT intensity
1,B1,4
2,B2,44
3,B3,9

# Molecular target: T16, Myo5, Q04439
# Experiment: SPOT array
# Conditions: median of control spots 471
row,Binder,SPOT intensity
1,B1,0
2,B2,83
3,B3,11

# Molecular target: T17, Nbp2, Q12163
# Experiment: SPOT array
# Conditions: median of control spots 357
row,Binder,SPOT intensity
1,B1,0
2,B2,2
3,B3,0

# Molecular target: T18, Pex13, P80667
# Experiment: SPOT array
# Conditions: median of control spots 1341
row,Binder,SPOT intensity
1,B1,2
2,B2,61
3,B3,21

# Molecular target: T19, Pin3, Q06449
# Experiment: SPOT array
# Conditions: median of control spots 2171
row,Binder,SPOT intensity
1,B1,1
2,B2,195
3,B3,40

# Molecular target: Rvs167, P39743
# Sequence (P39743 419-482): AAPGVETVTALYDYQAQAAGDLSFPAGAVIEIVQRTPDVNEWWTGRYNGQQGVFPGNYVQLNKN
# Experiment: SPOT array
# Conditions: median of control spots 2707
row,Binder,SPOT intensity
1,B1,0
2,B2,0
3,B3,0

# Molecular target: Sho1, P40073
# Sequence (P40073 287-367): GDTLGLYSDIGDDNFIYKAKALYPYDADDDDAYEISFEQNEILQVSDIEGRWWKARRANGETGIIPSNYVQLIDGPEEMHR
# Experiment: SPOT array
# Conditions: median of control spots 1148
row,Binder,SPOT intensity
1,B1,65
2,B2,60
3,B3,38

# Molecular target: T20, Sla1-2, P32790
# Experiment: SPOT array
# Conditions: median of control spots 712
row,Binder,SPOT intensity
1,B1,0
2,B2,27
3,B3,1

# Molecular target: T21, Sla1-3, P32790
# Experiment: SPOT array
# Conditions: median of control spots 5475
row,Binder,SPOT intensity
1,B1,28
2,B2,1
3,B3,25

# Reference: PMC2756588
